Some targets named below: human GCG-R (human) (UniProt P47871); human GIP-R (human) (UniProt P48546); human GLP-R (human) (UniProt P43220).
What all share (experiment): cell-based or functional assay

Sequence of human GLP-R (human) (P43220 24-463): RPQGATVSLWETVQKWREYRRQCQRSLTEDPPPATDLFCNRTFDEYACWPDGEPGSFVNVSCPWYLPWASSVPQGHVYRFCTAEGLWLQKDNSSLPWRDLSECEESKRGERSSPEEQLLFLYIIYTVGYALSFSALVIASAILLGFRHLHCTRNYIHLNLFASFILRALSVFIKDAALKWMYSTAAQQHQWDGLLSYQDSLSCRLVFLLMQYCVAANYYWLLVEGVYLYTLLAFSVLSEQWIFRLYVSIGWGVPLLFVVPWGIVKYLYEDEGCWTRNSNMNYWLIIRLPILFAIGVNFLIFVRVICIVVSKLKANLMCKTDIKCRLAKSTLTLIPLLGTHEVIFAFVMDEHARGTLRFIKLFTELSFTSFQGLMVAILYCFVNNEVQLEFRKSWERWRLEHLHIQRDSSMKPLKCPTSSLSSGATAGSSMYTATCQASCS
Sequence of human GIP-R (human) (P48546 22-466): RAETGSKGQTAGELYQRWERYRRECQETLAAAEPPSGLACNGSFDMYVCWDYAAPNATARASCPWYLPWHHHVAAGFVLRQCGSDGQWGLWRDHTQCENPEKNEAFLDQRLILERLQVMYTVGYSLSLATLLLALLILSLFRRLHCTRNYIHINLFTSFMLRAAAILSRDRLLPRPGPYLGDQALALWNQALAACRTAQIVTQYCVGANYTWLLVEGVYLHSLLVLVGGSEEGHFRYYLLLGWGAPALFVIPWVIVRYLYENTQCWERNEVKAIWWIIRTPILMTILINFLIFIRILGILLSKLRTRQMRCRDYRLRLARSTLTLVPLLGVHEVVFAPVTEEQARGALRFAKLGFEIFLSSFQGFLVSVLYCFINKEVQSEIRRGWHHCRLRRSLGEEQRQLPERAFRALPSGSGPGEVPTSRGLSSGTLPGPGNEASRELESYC
Sequence of Dulaglutide (Fc fusion) (chain): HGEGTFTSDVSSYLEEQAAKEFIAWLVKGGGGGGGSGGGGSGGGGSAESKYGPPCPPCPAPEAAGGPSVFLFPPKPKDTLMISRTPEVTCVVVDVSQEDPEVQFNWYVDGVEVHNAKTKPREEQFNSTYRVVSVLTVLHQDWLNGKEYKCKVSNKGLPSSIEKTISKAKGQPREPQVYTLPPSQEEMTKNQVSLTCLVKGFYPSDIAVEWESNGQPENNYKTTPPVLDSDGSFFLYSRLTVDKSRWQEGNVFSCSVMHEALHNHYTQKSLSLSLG
Sequence of human GCG-R (human) (P47871 26-477): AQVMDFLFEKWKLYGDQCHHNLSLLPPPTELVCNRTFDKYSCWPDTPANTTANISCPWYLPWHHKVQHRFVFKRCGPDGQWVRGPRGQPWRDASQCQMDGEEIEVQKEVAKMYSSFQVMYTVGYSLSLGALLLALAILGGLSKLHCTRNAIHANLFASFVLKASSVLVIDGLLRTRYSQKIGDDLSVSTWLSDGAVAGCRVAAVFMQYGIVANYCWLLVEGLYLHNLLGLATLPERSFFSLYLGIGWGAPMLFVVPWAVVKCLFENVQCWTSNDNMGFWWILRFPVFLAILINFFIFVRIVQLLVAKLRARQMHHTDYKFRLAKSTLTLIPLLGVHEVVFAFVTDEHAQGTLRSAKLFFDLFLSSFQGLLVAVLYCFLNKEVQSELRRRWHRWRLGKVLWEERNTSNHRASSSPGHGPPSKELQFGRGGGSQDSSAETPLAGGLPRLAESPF

For the substance Dulaglutide (Fc fusion), in the assay with human GCG-R (human), the % max GCG, human GCG-R (cAMP assay) is 1.6% and the EC50 [nM], human GCG-R (cAMP assay) was greater than 600 nM. In addition, in the assay with human GIP-R (human), the % max GIP, human GIP-R (cAMP assay) was 13.8% and the EC50 [nM], human GIP-R (cAMP assay) was greater than 600 nM. In the assay with human GLP-R (human), this substance had a % max GLP-1, human GLP-R (cAMP assay) of 98.2% and an EC50 [nM], human GLP-R (cAMP assay) of 0.129 nM.

As for G3Fc only (from UniProt P0DOX5 223-449), in the assay with human GIP-R (human), the EC50 [nM], GIP-R (cAMP assay) was greater than 600 nM. For the same substance, in the assay with human GLP-R (human), the EC50 [nM], GLP1-R (cAMP assay) was greater than 600 nM.

These data come from patent US20160310575A1.
